Experimental data reported in patent US20240390512A1, “METHODS OF TREATING CHEMOTHERAPY-RESISTANT CANCER WITH AN ANTIBODY-DRUG CONJUGATE” (DAIICHI SANKYO COMPANY, LIMITED, priority 2021, published 2024).

T1: hCDH6-transfected 293T cells (Homo sapiens, UniProt P55285)
T1 construct: expressed in transfected cells; host or cells: 293T cells (ATCC)
T1 sequence (P55285 19-790): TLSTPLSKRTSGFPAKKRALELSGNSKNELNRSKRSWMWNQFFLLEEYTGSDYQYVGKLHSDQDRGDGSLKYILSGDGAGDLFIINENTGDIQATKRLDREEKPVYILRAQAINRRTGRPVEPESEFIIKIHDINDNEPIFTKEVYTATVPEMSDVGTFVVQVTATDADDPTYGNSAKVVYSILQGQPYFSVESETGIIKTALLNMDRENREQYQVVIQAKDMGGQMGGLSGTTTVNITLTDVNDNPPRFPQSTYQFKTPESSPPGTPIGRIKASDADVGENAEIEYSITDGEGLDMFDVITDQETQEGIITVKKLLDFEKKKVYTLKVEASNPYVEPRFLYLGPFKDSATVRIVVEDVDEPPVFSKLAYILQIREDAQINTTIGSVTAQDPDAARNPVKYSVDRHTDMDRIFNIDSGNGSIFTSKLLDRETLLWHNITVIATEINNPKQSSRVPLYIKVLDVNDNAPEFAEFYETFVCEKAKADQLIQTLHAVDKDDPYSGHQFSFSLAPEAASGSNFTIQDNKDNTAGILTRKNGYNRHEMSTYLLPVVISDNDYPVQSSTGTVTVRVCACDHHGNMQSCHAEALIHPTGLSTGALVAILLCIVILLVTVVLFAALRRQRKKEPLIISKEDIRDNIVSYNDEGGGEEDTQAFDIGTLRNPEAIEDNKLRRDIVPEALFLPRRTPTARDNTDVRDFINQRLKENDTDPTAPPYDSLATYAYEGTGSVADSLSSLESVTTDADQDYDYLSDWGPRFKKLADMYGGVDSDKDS


Molecular target: T1, hCDH6-transfected 293T cells
Experiment: Binding ability of rat anti-CDH6 antibody by flow cytometry
Settings: antibody final concentration 10 ng/mL
Method: The human CDH6-binding activity of the rat anti-CDH6 antibody produced in Reference Example 1)-7 was evaluated by flow cytometry. Using Lipofectamine 2000 (Thermo Fisher Scientific Inc.), pcDNA3.1-hCDH6 produced in Reference Example 1)-1 was transiently introduced into 293T cells (ATCC). The cells were cultured overnight under conditions of 37° C. and 5% CO2, and thereafter, a cell suspension was prepared. The suspension of the transfected 293T cells was centrifuged, and the supernatant was then removed. Thereafter, the cells were suspended by the addition of each of the 4 rat anti-CDH6 monoclonal antibodies (clone Nos: rG019, rG055, rG056 and rG061), which had been prepared in Reference Example 1)-7, or rat IgG control (R&D Systems, Inc.) (final concentration: 10 ng/mL). The cells were left standing at 4° C. for 1 hour. The cells were washed twice with PBS supplemented with 5% FBS, and then suspended by the addition of Anti-Rat IgG (whole molecule)-FITC antibody produced in rabbit (Sigma-Aldrich Co. LLC) that had been 50-fold diluted with PBS supplemented with 5% FBS. The cells were left standing at 4° C. for 1 hour. The cells were washed twice with PBS supplemented with 5% FBS, followed by detection using a flow cytometer (FC500; Beckman Coulter, Inc.). The data was analyzed using FlowJo (Tree Star, Inc.). In the histogram of FIG. 1, the abscissa depicts FITC fluorescence intensity indicating the amount of the antibody bound, and the ordinate depicts a cell count. […] The rat IgG control binds to neither of the cells. As a result, it was confirmed that the 4 produced rat anti-CDH6 monoclonal antibodies bind to 293T cells transfected with pcDNA3.1-hCDH6.

Molecule	binding to 293T cells transfected with pcDNA3.1-hCDH6
rG055: rat anti-human CDH6 monoclonal antibody produced by hybridoma rG055; variable regions SEQ ID NO: 20 and 25 (antibody, listed as Rattus norvegicus, V domains shown) VL: DVQMTHSPSYLAASPGESVSISCKTSKNISNYLVWYQQKPGEAYKLLIYSGSTLQSGTPSRFSGSGSGTDFTLTIRSLEPEDFGLYFCQQYYEKPFTFGSGTKLEIKRA VH: EVQLQESGPGLVRPSQSLSLSCSVTDYSITSNYWGWIRRFPGNKMEWMGYITYSGYTSYNPSLQSRISITRDTSKNQFFLQLNSVTAEDTATYYCARSINHGGYSYVVDAWGPGASVTVSS	bind
rG019: rat anti-human CDH6 monoclonal antibody produced by hybridoma rG019; variable regions SEQ ID NO: 10 and 15 (antibody, listed as Rattus norvegicus, V domains shown) VL: DIQMTQSPSLLSASVGDRVTLNCKASQNIYKNLAWYQQKLGEGPKLLIYDANTLQTGIPSRFSGSGSGSDFTLTISSLQPEDVATYFCQQYYSGWAFGGVTNLELKRA VH: QVQLQQSGAELVKPGSSVKISCKASGYTFTRNFMHWIKQQPGNGLEWIGWIYCGDGETEYNQKFNGKATLTADRSSSTAYMELSRLTSEDSAVYFCARGVYGGFAGGYFDFWGQGVMVTVSS	bind

Now from value to molecule:

binding to 293T cells transfected with pcDNA3.1-hCDH6	Molecule
bind	rG056: rat anti-human CDH6 monoclonal antibody produced by hybridoma rG056; variable regions SEQ ID NO: 30 and 35 (antibody, listed as Rattus norvegicus, V domains shown) VL: DVQMTQSPSSLAASPGESVSISCRATKSIGIYLAWYQQKPGKTFKLLIYSGSTLQSGTPSRFSGSGSGTDFTLTIRSLEPEDFGLYFCQQFYENPFTFGSGTKLEIRRA VH: EVQLQESGPGLVKPSQSLSLTCSVTDYSITTYFWGWIRKFPGNKMEWMGYMSYRGGTSYNPSLKSRISITRDTSKNQFFLQLNSVTTEDTATYYCARCPNYGGHSLVFDYWGQGVMVTVSS
bind	rG061: rat anti-human CDH6 monoclonal antibody produced by hybridoma rG061; variable regions SEQ ID NO: 40 and 45 (antibody, listed as Rattus norvegicus, V domains shown) VL: DVQMTQSPSYLAASPGESVSISCKATKSISNYLAWYQQKPGEAYKVLIYSGSTLQSGTPSRFSGSGSGTDFTLTIRSLEPEDFGLYSCQQYYEKPLTFGSGTKLEIKRA VH: EVQLQESGPGLVKPSQSLSLTCSVTGYSITTYYWGWIRKFPGNKMEWMGYISYSGRTSYNPSLKSRMSITRDASKNQFFLQLNSVTTDDTATYYCARSPINHGGYWYFDFWGPGTMVTVSS
